Measurements: patent US9993529B2, “Stable formulations of a hyaluronan-degrading enzyme” (Halozyme, Inc., priority 2011, dated 2018)

Test: RP-HPLC insulin apparent solubility / percent recovery (content)
Conditions: 7 days at 2-8° C.
Method: Apparent solubility was measured as the percent insulin recovery as compared to the initial formulations/conditions.
Samples were prepared by withdrawing 100 μL from each vial at every time point and centrifuging prior to loading. Samples were stored in an autosampler at 4° C. prior to use, and were considered stable for 3 days after preparation. All samples were tested in duplicate.
For insulin, 20 μL was injected for each HPLC run.
To determine the apparent solubility, the peak area of insulin/insulin analog main peak and desamido peak were integrated and combined together to calculate the percentage relative to the standards. […] The data were processed using Design-Expert® 7.0 (StatEase) and the “historical data” feature. Insulin percent purity was expressed as the percent of main insulin versus all insulin species.

Substance: Aspart: AspB28 human insulin analog
- Solubility of Insulin Aspart (0.2% methylparaben + […] m-cresol, pH 6.6, NaCl 50 mM): 57.7%
- Solubility of Insulin Aspart (0.2% methylparaben + […] m-cresol, pH 6.6, NaCl 80 mM): 32.1%
- Solubility of Insulin Aspart (0.2% methylparaben + […] m-cresol, pH 6.6, NaCl 110 mM): 21.1%
- Solubility of Insulin Aspart (0.2% methylparaben + […] m-cresol, pH 6.6, NaCl 140 mM): 14.7%
- Solubility of Insulin Aspart (0.2% methylparaben + […] m-cresol, pH 6.8, NaCl 50 mM): 97.2%
- Solubility of Insulin Aspart (0.2% methylparaben + […] m-cresol, pH 6.8, NaCl 80 mM): 84.1%
- Solubility of Insulin Aspart (0.2% methylparaben + […] m-cresol, pH 6.8, NaCl 110 mM): 54.2%
- Solubility of Insulin Aspart (0.2% methylparaben + […] m-cresol, pH 6.8, NaCl 140 mM): 32.2%
- Solubility of Insulin Aspart (0.2% methylparaben + […] m-cresol, pH 7.0, NaCl 50 mM): 98.7%
- Solubility of Insulin Aspart (0.2% methylparaben + […] m-cresol, pH 7.0, NaCl 80 mM): 100.2%
- Solubility of Insulin Aspart (0.2% methylparaben + […] m-cresol, pH 7.0, NaCl 110 mM): 96.3%
- Solubility of Insulin Aspart (0.2% methylparaben + […] m-cresol, pH 7.0, NaCl 140 mM): 67.9%
- Solubility of Insulin Aspart (0.2% methylparaben + […] m-cresol, pH 7.2, NaCl 50 mM): 99.0%
- Solubility of Insulin Aspart (0.2% methylparaben + […] m-cresol, pH 7.2, NaCl 80 mM): 100.2%
- Solubility of Insulin Aspart (0.2% methylparaben + […] m-cresol, pH 7.2, NaCl 110 mM): 99.5%
- Solubility of Insulin Aspart (0.2% methylparaben + […] m-cresol, pH 7.2, NaCl 140 mM): 101.6%
- Solubility of Insulin Aspart (0.2% methylparaben + […] m-cresol, pH 7.4, NaCl 50 mM): 99.1%
- Solubility of Insulin Aspart (0.2% methylparaben + […] m-cresol, pH 7.4, NaCl 80 mM): 100.5%
- Solubility of Insulin Aspart (0.2% methylparaben + […] m-cresol, pH 7.4, NaCl 110 mM): 99.6%
- Solubility of Insulin Aspart (0.2% methylparaben + […] m-cresol, pH 7.4, NaCl 140 mM): 99.6%
- Solubility of Insulin Aspart (0.2% methylparaben + […] m-cresol, pH 7.6, NaCl 50 mM): 99.3%
- Solubility of Insulin Aspart (0.2% methylparaben + […] m-cresol, pH 7.6, NaCl 80 mM): 100.6%
- Solubility of Insulin Aspart (0.2% methylparaben + […] m-cresol, pH 7.6, NaCl 110 mM): 99.8%
- Solubility of Insulin Aspart (0.2% methylparaben + […] m-cresol, pH 7.6, NaCl 140 mM): 99.8%
- Solubility of Insulin Aspart (0.2% phenol + […] m-cresol, pH 6.6, NaCl 50 mM): 91.8%
- Solubility of Insulin Aspart (0.2% phenol + […] m-cresol, pH 6.6, NaCl 80 mM): 59.2%
- Solubility of Insulin Aspart (0.2% phenol + […] m-cresol, pH 6.6, NaCl 110 mM): 58.0%
- Solubility of Insulin Aspart (0.2% phenol + […] m-cresol, pH 6.6, NaCl 140 mM): 39.3%
- Solubility of Insulin Aspart (0.2% phenol + […] m-cresol, pH 6.8, NaCl 50 mM): 98.8%
- Solubility of Insulin Aspart (0.2% phenol + […] m-cresol, pH 6.8, NaCl 80 mM): 91.8%
- Solubility of Insulin Aspart (0.2% phenol + […] m-cresol, pH 6.8, NaCl 110 mM): 72.8%
- Solubility of Insulin Aspart (0.2% phenol + […] m-cresol, pH 6.8, NaCl 140 mM): 50.9%
- Solubility of Insulin Aspart (0.2% phenol + […] m-cresol, pH 7.0, NaCl 50 mM): 99.1%
- Solubility of Insulin Aspart (0.2% phenol + […] m-cresol, pH 7.0, NaCl 80 mM): 100.6%
- Solubility of Insulin Aspart (0.2% phenol + […] m-cresol, pH 7.0, NaCl 110 mM): 99.9%
- Solubility of Insulin Aspart (0.2% phenol + […] m-cresol, pH 7.0, NaCl 140 mM): 88.9%
- Solubility of Insulin Aspart (0.2% phenol + […] m-cresol, pH 7.2, NaCl 50 mM): 99.1%
- Solubility of Insulin Aspart (0.2% phenol + […] m-cresol, pH 7.2, NaCl 80 mM): 100.5%
- Solubility of Insulin Aspart (0.2% phenol + […] m-cresol, pH 7.2, NaCl 110 mM): 100.0%
- Solubility of Insulin Aspart (0.2% phenol + […] m-cresol, pH 7.2, NaCl 140 mM): 99.7%
- Solubility of Insulin Aspart (0.2% phenol + […] m-cresol, pH 7.4, NaCl 50 mM): 99.2%
- Solubility of Insulin Aspart (0.2% phenol + […] m-cresol, pH 7.4, NaCl 80 mM): 100.6%
- Solubility of Insulin Aspart (0.2% phenol + […] m-cresol, pH 7.4, NaCl 110 mM): 100.0%
- Solubility of Insulin Aspart (0.2% phenol + […] m-cresol, pH 7.4, NaCl 140 mM): 99.7%
- Solubility of Insulin Aspart (0.2% phenol + […] m-cresol, pH 7.6, NaCl 50 mM): 99.2%
- Solubility of Insulin Aspart (0.2% phenol + […] m-cresol, pH 7.6, NaCl 80 mM): 100.8%
- Solubility of Insulin Aspart (0.2% phenol + […] m-cresol, pH 7.6, NaCl 110 mM): 100.2%
- Solubility of Insulin Aspart (0.2% phenol + […] m-cresol, pH 7.6, NaCl 140 mM): 99.8%
- Solubility of Insulin Aspart ([…] phenol + […] m-cresol, pH 6.6, NaCl 50 mM): 97.9%
- Solubility of Insulin Aspart ([…] phenol + […] m-cresol, pH 6.6, NaCl 80 mM): 86.3%
- Solubility of Insulin Aspart ([…] phenol + […] m-cresol, pH 6.6, NaCl 110 mM): 54.4%
- Solubility of Insulin Aspart ([…] phenol + […] m-cresol, pH 6.6, NaCl 140 mM): 38.3%
- Solubility of Insulin Aspart ([…] phenol + […] m-cresol, pH 6.8, NaCl 50 mM): 99.8%
- Solubility of Insulin Aspart ([…] phenol + […] m-cresol, pH 6.8, NaCl 80 mM): 97.9%
- Solubility of Insulin Aspart ([…] phenol + […] m-cresol, pH 6.8, NaCl 110 mM): 97.5%
- Solubility of Insulin Aspart ([…] phenol + […] m-cresol, pH 6.8, NaCl 140 mM): 60.5%
- Solubility of Insulin Aspart ([…] phenol + […] m-cresol, pH 7.0, NaCl 50 mM): 99.7%
- Solubility of Insulin Aspart ([…] phenol + […] m-cresol, pH 7.0, NaCl 80 mM): 99.3%
- Solubility of Insulin Aspart ([…] phenol + […] m-cresol, pH 7.0, NaCl 110 mM): 99.3%
- Solubility of Insulin Aspart ([…] phenol + […] m-cresol, pH 7.0, NaCl 140 mM): 100.2%
- Solubility of Insulin Aspart ([…] phenol + […] m-cresol, pH 7.2, NaCl 50 mM): 99.1%
- Solubility of Insulin Aspart ([…] phenol + […] m-cresol, pH 7.2, NaCl 80 mM): 99.2%
- Solubility of Insulin Aspart ([…] phenol + […] m-cresol, pH 7.2, NaCl 110 mM): 99.2%
- Solubility of Insulin Aspart ([…] phenol + […] m-cresol, pH 7.2, NaCl 140 mM): 101.1%
- Solubility of Insulin Aspart ([…] phenol + […] m-cresol, pH 7.4, NaCl 50 mM): 100.0%
- Solubility of Insulin Aspart ([…] phenol + […] m-cresol, pH 7.4, NaCl 80 mM): 99.6%
- Solubility of Insulin Aspart ([…] phenol + […] m-cresol, pH 7.4, NaCl 110 mM): 99.5%
- Solubility of Insulin Aspart ([…] phenol + […] m-cresol, pH 7.4, NaCl 140 mM): 101.1%
- Solubility of Insulin Aspart ([…] phenol + […] m-cresol, pH 7.6, NaCl 50 mM): 100.1%
- Solubility of Insulin Aspart ([…] phenol + […] m-cresol, pH 7.6, NaCl 80 mM): 99.7%
- Solubility of Insulin Aspart ([…] phenol + […] m-cresol, pH 7.6, NaCl 110 mM): 99.4%
- Solubility of Insulin Aspart ([…] phenol + […] m-cresol, pH 7.6, NaCl 140 mM): 101.1%
